This note sets out measurements from PMC5665954, “Coupling fission and exit of RAB6 vesicles at Golgi hotspots through kinesin-myosin interactions” (Nature Communications, 2017).

One may read the stoichiometry N as the number of molecules, sites or subunits per partner or assembly.

Series [1] has as its target GST-Myosin II-1148-1652 (human) (UniProt P35579). In words: ELISA; solid-phase assay: 96-well plates coated with 10 µg GST-GFP, GST-Myosin II-1148-1652 or GST-RAB6A:GTP; 0-40 µg 6xHis-RAB6:GTP or 6xHis-KIF20A-529-665 added; 20 mM Hepes pH 7.5, 100 mM NaCl, 5 mM MgCl2; detection with anti-6xHis antibodies, absorbance at 450 nm.
Series [2] concerns the molecule itself. Kind of series: crystal structure; complex of RAB6A-Q72L-8-195 and KIF20A-603-665 at 10 mg/ml; 100 mM Hepes pH 7.4, 200 mM ammonium sulfate, 24% PEG 8K, 2% isopropanol, 17 °C; 2 Å.

Consider “6xHis-RAB6:GTP (from UniProt P20340 1-208) (natural protein)”, for which the fold lower affinity than RAB6 and Myosin II-1148-1652 have for KIF20A-RBD-529-665 in series [1] was found to be 5 fold.

B1: KIF20A fragment (603-665) (domain or fragment, UniProt P97329 603-665, looked up)
chain: EQWCSERLDNQKELMEELYEEKLKILKESLTTFYQEQIQERDEKIEELETLLQEAKQQPAAQQ
notes: Parallel right-handed coiled-coil dimer with an inter-helical cysteine bridge; also called KIF20A-RBD; source: E. coli BL21 (DE3), co-expressed with m20, purified (Glutathione Sepharose 4B, rTEV cleavage, Ni-NTA); not shown: GST, N-terminal, cleaved
For B1, the “stoichiometry N” value in series [2] was 2.
